# Measurements from article PMC3267040, “Structure of a Blinkin-BUBR1 Complex Reveals an Interaction Crucial for Kinetochore-Mitotic Checkpoint Regulation via an Unanticipated Binding Site” (Structure(London, England:1993), 2011).
# B1: Blinkin S208-K226 peptide (peptide, UniProt Q8NG31-2 208-226, looked up)
# peptide: SSENKIDFNDFIKRLKTGK
# notes: Blinkin (KNL1, CASC5), human, NCBI NP_653091.2, residues S208-K226; peptide synthesis is in the supplement; also called Blinkin peptide; source: synthetic peptide
# Key:
# [1] = target: T1, BUBR1_(57-220), recombinant protein (human, UniProt O60566 57-220); test: ITC; BUBR1_(57-220) at 27 μM titrated against 200 μM of Blinkin peptide S208-K226; conditions: both partners purified
# T1 construct: BUBR1, human, residues 57-220 (TPR-containing domain); 15N,13C-labelled for NMR; also called native BUBR1; free BUBR1
# [2] = target: T1, BUBR1_(57-220), recombinant protein; test: fluorescence-based thermal shift assay; Tm of BUBR1_(57-220) without and with Blinkin S208-K226 peptide; conditions: both partners purified
# T1 sequence (O60566 57-220): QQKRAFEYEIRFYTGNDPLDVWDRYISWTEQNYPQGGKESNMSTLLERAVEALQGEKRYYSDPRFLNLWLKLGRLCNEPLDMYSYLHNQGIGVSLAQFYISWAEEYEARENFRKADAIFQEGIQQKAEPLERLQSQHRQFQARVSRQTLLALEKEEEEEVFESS
binder,measurement,setting,value
B1,Kd,[1],9.3 ± 0.4 µM
same,dH,[1],-2.7 kcal/mol
same,stoichiometry N,[1],1
same,increase of the Tm of BUBR1_(57-220) on addition of the peptide,[2],~2 °C
